From paper PMC3103433 (2011)

B1: His-6-Munc18c [not stated] / Sx4 lacking the N-terminal 36 amino acids (N36Δ), GST fusion [not stated] (parent complex)
chain 1: MAPPVSERGLKSVVWRKIKTAVFDDCRKEGEWKIMLLDEFTTKLLSSCCKMTDLLEEGITVIENIYKNREPVRQMKALYFISPTPKSVDCFLRDFGSKSEKKYKAAYIYFTDFCPDSLFNKIKASCSKSIRRCKEINISFIPQESQVYTLDVPDAFYYCYSPDPSNASRKEVVMEAMAEQIVTVCATLDENPGVRYKSKPLDNASKLAQLVEKKLEDYYKIDEKGLIKGKTQSQLLIIDRGFDPVSTVLHELTFQAMAYDLLPIENDTYKYKTDGKEKEAVLEEDDDLWVRVRHRHIAVVLEEIPKLMKEISSTKKATEGKTSLSALTQLMKKMPHFRKQISKQVVHLNLAEDCMNKFKLNIEKLCKTEQDLALGTDAEGQRVKDSMLVLLPVLLNKNHDNCDKIRAVLLYIFGINGTTEENLDRLIHNVKIEDDSDMIRNWSHLGVPIVPPSQQAKPLRKDRSAEETFQLSRWTPFIKDIMEDAIDNRLDSKEWPYCSRCPAVWNGSGAVSARQKPRTNYLELDRKNGSRLIIFVIGGITYSEMRCAYEVSQAHKSCEVIIGSTHILTPRKLLDDIKMLNKSKDKVSFKDE
chain 2: PDDEFFQKVQTIRQTMAKLESKVRELEKQQVTILATPLPEESMKQGLQNLREEIKQLGREVRAQLKAIEPQKEEADENYNSVNTRMKKTQHGVLSQQFVELINKCNSMQSEYREKNVERIRRQLKITNAGMVSDEELEQMLDSGQSEVFVSNILKDTQVTRQALNEISARHSEIQQLERSIRELHEIFTFLATEVEMQGEMINRIEKNILSSADYVERGQEHVKIALENQKKARKKK
B2: His-6-Munc18c [not stated] / Sx4-GST, wild-type Syntaxin 4 cytosolic domain (residues 1-273) [not stated] (parent complex)
chain 1: B1 chain 1
chain 2: MRDRTHELRQGDNISDDEDEVRVALVVHSGAARLGSPDDEFFQKVQTIRQTMAKLESKVRELEKQQVTILATPLPEESMKQGLQNLREEIKQLGREVRAQLKAIEPQKEEADENYNSVNTRMKKTQHGVLSQQFVELINKCNSMQSEYREKNVERIRRQLKITNAGMVSDEELEQMLDSGQSEVFVSNILKDTQVTRQALNEISARHSEIQQLERSIRELHEIFTFLATEVEMQGEMINRIEKNILSSADYVERGQEHVKIALENQKKARKKK

Variants of: B1
Experiment: GST pull-down, anti-Munc18c immunoblot quantification; 1 μg GST fusion on glutathione-Sepharose, 1 μg Munc18c, binding buffer, overnight, 4°C; read off a plot
chain 2 L137A, chain 2 E138A was tested, and the screen value was ~13 % of wild-type Sx4.

Variants of: B1
Experiment: GST pull-down, anti-Munc18c immunoblot quantification; 1 μg GST fusion on glutathione-Sepharose, 1 μg Munc18c, binding buffer, overnight, 4°C; n=3; read off a plot
chain 2 L137A, chain 2 E138A was tested, and the screen value was ~18 % of wild-type Sx4.

Variants of: B2
Experiment: GST pull-down, anti-Munc18c immunoblot quantification; 1 μg GST fusion on glutathione-Sepharose, 1 μg Munc18c, binding buffer, overnight, 4°C; read off a plot
In the case of chain 2 L173A, chain 2 E174A, the percent of parent is reported as ~73 % of wild-type Sx4.

Variants of: B2
Experiment: GST pull-down, anti-Munc18c immunoblot quantification; 1 μg GST fusion on glutathione-Sepharose, 1 μg Munc18c, binding buffer, overnight, 4°C; n=3; read off a plot
In the case of chain 2 L173A, chain 2 E174A, the percent of parent is reported as ~89 % of wild-type Sx4.
